Experimental findings from a protein production outcome set (Wang et al. 2014) are described below.

The data set in a line: label from the status in PepcDB records.
For “MLLALLSLGTWPAVLTLLERRGRLPQHTYLDYSITNLLAAIIIAFTFGQIGSTKPDSPNFITQLAQDNWPSVMFAMAGGIVLSLGNLSTQYAWALVGLSVTEVITSSITVVIGSTLNYFLDDKINKAEILFPGVACFLIAVCLGSAVHRSNADDNKAKLRDFETAKQEASGPSTEIGTNSSKDLETNVTTKPKEGTARFLIELENTRAIKVFGKRKIIGLAITFFAGLCFSLFSPAFNLATNDQWNRLKQGVPKLVVYTAFFYFSVSCFIIALILNVVFLYYPVLGLPKSSFKAYLNDWNGRYWAFLAGFLCGFGNGLQFMGGQAAGYAAADSVQALPLVSTFWGVVLFGEYRRSSRKTYLLLFCMLFMFISAVAVLMASSGHRK”, the protein production result is “failed”.
On to “LTLDLAPVTPKDAPLLHRVFHLSPSYFALIGMELPTLEDVVRDLQTLEVDPRRRAFLLFLGQEPVGYLDAKLGYPEAEDATLSLLLIREDHQGRGLGRQALERFAAGLDGVRRLYAVVYGHNPKAKAFFQAQGFRYVK”, for which the protein production result was “not failed”.
Under “MPDACFSDGDPIVLVVLGYVVVVVAVLGGYALTGGHMGALYQPAELIIIGGAAVGAFISSNSGKAIKATMKAMPSLLKGSKYKKELYLDVMALLYVLLSKARREGILFLEKEIADPASSSVFSQYPRILADAKMMEFLTDYLRMMVNGNMNAFEIEALMDHEIETVRHEAEIPAHALSRVGDGLPAFGIVAAVMGVVHALASADLPPAELGALIANAMVGTFLGILLAYGFVSPLASRVEHQVSESIKMYECIKVTLLASLNGYAPLVAVEFGRKVLYSTVRPSFLELDDHVREVKSLT” stands “failed”; under “NLSELTPYILCSICKGYLIDATTITECLHTFCKSCIVRHFYYSNRCPKCNIVVHQTQPL”, “not failed”; under “MAEDTYEEECDYLFKAVLIGDSAVGKSNLLSRFSKDEFRFDSKPTIGVEFAYRNVHVGDKIIKAQIWDTAGQERFRAITSSYYRGALGALLIYDITRRTTFDNIKKWLFELRDFANPETVVVLVGNKSDLRQSREVEEDEGKTLAESEGLYFLETSALENVNVEEAFLVMIGRIHEVVTQRIASENKSNGAATPHINGNGNGTVLPVGKEIVNIHEVTATQPLLSSSSNCCFK”, “failed”.
For “MNESVDTDEATTPLVSAIIPTYGRNERLSSAIQSVLEQTYDNIELFVVDDASPTPVRETLDSFDPTVENSFRILRHDENQGANAARNTGIRASDGRYVAFLDDDDQWDETKITKQVQAFQESDSETGVVYTGVRKDGPEGTTVSTPVASGDVMKDLLTGTNFGQFSSVMVDTTVIETAGLPDERLPAWQDREWFFRLAQHTHFRPVRETLTYRQTGLPGSITKKYEQKRDVAYPMLISKHDWVAAEYGIYYERMFKATMRRSLARSAVRADRYKEARKYFLLSALANPLYWPVYPHLFASLGGKWSYESIASLRQQVTNGPASGTLEHHHHHH” the value was “failed”.
With “MSDSLFLSLAKFDVILSGSTNSNILHDVMGQVIDRSEIQDLNANNKPTKKIDFHLRDQHDTRLACILWGKYAEIVDKACQESTDGIVVCLIRFAKINLYNDTRSVSNFFDVSQVFVDPTLAELDLFKQSIP”, the protein production result is “failed”.
For “MFSAKKLSPADKLKNISSMLEEIVEDTTVPRNIRAAADNAKNALHNEEQELIVRSATAIQYLDDISEDPNMPIHTRTQIWGIVSELETIK” the value was “not failed”.
“MDHFSYRNTNKMVRTHVVVGSRPCCFSCAMEEKDPCVRKAWLELSLRDMHMIRDDTELALTLSFIWRYAMADPENPELPSLGVFECMTRLMKKGLEDVEWVMTGQNVYVPYYAAHIIGSYTMKKPDFATKAVESGVIAPLLELMRRKMSWVEQRVVVRALGHLASYETTFEAVAAYEDEVVRLAMEIAMTCVDVVYEEFVSVQEKEGRVRYHSDLLTRGLGGLEMEDRKAEEWASQLQCWSLHLLNCFAYKQKCISLICNKTFLKELSQMWGGLVNHTSPSGIGLIRILCYSKQGRRHVSGSREMILSLCNLSRSSDDWQYMGIDCLLLLLKDQATRYNVLEMSLFYLVDLVEVKALNVRKNLGDRITKVLLMHYCKTKKGCAYSHKAQKALKELWRNKVERRRRERKFMSKNQDFLRETSVVVYLIKQQANQLLHVGDIEGAIKCYTEAIGLCPLKLRRKRMNLYSERGECYLLLGDVDAAISDCTRALCLSEPVNSHGKSLWTRSRAYDIKGLSRESLMDCIMFVNGRCFRGNIPYYAAQMISKQMEATWLFEKARASKLGRMMLKEKFHLTGIFIFLYICMNISS”: the protein production entry is “failed”.
Under “MSEAYFRVESGALGPEENFLSLDDILMSHEKLPVRTETAMPRLGAFFLERSAGAETDNAVPQGSKLELPLWLAKGLFDNKRRILSVELPKIYQEGWRTVFSADPNVVDLHKMGPHFYGFGSQLLHFDSPENADISQSLLQTFIGRFRRIMDSSQNAYNEDTSALVARLDEMERGLFQTGQKGLNDFQCWEKGQASQITASNLVQNYKKRKFTDMED” stands “failed”; under “MTVVTFLAFLIPILVLAAIGGVVWWFWMKLRYKTARSNEALIIAGPKLGDPKKETNIFTDNEGRSIKIIRGGGHLLKMHQTATPVDLTSFQLKLTTPRVFTNGGVPIIADAVAMVTVSDTLKGIAIYAEQFLGKEQKEIESEISEVLNANLRAILSKMTVEQINEDREGFNLQVTEVAQKQLDSMGFKITSLGLQDLRDADKENGYLENLGRPRIAEVRKRAEIAESNSDKETRIHKANNDKEAKEQEFQRKIEIAAALKEKDLKDAAIKEETERARAKAEQSYLLEKAKLDKEVQEEELQLLARKKEEELRIKHLERERAVKLEEEEAKVRRAKADADFYETTRKAEADAEKARIEGETKARIKREEGLAEAEVIRKRGEAEAEAKRLLAEAIAKHGEVIIIEKLIEMLPQFAESISKPLSNIESVKIIDTGNGNGVSSYSKSITNTMAQIQEPLKELTGLDVSKLLTDLVNRGNTHTVVRTEAVPTDHHGSPVAASTESEEPVEDQPLENSDSEEKLEHHHHHH”, “not failed”.
Under “MSNEISLCMIVKNEEKYLFQCLDSVKDIVDEIIIVDTGSTDKTVEIAKKFGAEIHYFMWNNSFSDARNESLKYATKDWIFIMDGDDEFSKDDKEKFKELVKNNLKEDCLYYFETLSYCGEFVDSSNISVNLNPRLFKNNYGYKYEGIVHNQLINTEKEIKNVIYNIRIYHYGYLEDVSKKKNKRGRNIPLLKKQLKENPDDRFAHFNIGNEYYAIGDLQKALTHYCEAYKDFNPSSGFGFVLITRLIVTNFGIGKHEKAIEFADIGLEYYPNATDIYFLKALIYEATRRPTLAIKALKRCIEMGEPPSNLKLYYGTWSFKALYELVNIYMGLKDYEEAYKYCIETIKAKNDFVNPVYVIGHILKERKTPIEEFKVELEKLFSDYPKAYFFIANILYDEGYFNEALEYTDKCEKEGLNSDAILDLKLKAMIRAQKFNECAEANYFAKESVFYFNASMYKVLSLVLIGKFKEALKDLEIFKDGKLKRQDKKELEVYSQFVKLFMNEETKVLSEDKEDKEYTGFILDICDILLSNKLYDEFEKALNLFNLISDENVLLNLSKLYYKHGIESMAKKEAIRSIKEFEVFDNEILDILR” stands “failed”.
In the case of “MNQSIIFTEQLTWDVQLSAIHFTAQQQGMVIDCYIGQKVLEHLAAEKINNSEQALSLFEQFRFDIEEQAEKLIEQEAFDVQGHIQVERVD”, the protein production entry is “not failed”.
Under “MNSEQADILDLLSGHTDDTTIERLAFECLLTNMTDDRVVSLMNILGWQGDFNCFAIGGVPSASLASTSLAIRKAVRDLGGEHVVIGTYGTFLLALACQMGAVTPEVTCTAVMPAFSEDEPLYLSPVRSGVAGASHALRETMFSLQAAPALSTPSRPLRADELLPERALLGDDYAREELYRNVYQVLRGENPDDPTYLTVSTFLKYGSSLENTAKELNVHPNTVRYRLKRAAETTGWDATDPRDAYVLTTALAIGRMRDR” stands “not failed”; under “MSSASSEAQRLARLALLQVVDTAAEPFFDALAAAAQAIAGTPIALVSLVDERRQWWKANIGLPGVSETPRELAFCTYTIQGDAVMEVRDAPADPRFHDNALVTDAPGIRYYAGAPIVLPDGLRMGTVCVIDQRPRALEPAQLQALQQLAKVAAEGLEQRRVMLEREAANAQLQQRLRESEAFLERTGRVAGVGGWEVDVASGTLIWSDQTCRLHDVPPGYRPSLTEAIGFYPLEARAVITEAVDACVRDGTSWDLELPLTSATGRRLWVHSTGSVEHVDGRKRLIGAVQDVTDRHRAVDALAASERKFRKMFQYSLGLICTHDMHGRLVSINPAAARSLGRSVEQMEGRSLVEFVRPERHAALRGYLSRMVLDGQDSGVIELVAGDGSLRHWQYHNVLDVESDATVVLAHAQDITNQYRQEKQLLEWSFTDPLTNCYNRRFLDELDKRDPAVRWGCIVVDLDKFKLVNDTHGHQRGDEVLVQMAWFLNQPLRTQDRLVRLGGDEFLVLLHQASQTQLDALKRDYMGASEDAPIRFTLGTALRQDGEALAAVVDRADHSLYSLRRARRGTGTSDQR”, “failed”; under “MRERKKYGKHIPKSLSSKINKRKLIQKNICTNYKTIKIIDIYENLPYNQLNNGRTKIKEIILANDVLVVLLISGISRAYNMINGEFLCEINPNNFSVVHTIVYNSYNNTLIIAYASFPAHLQCKVIDCNDLKHGITNSSKLGILFGT”, “failed”.
For the sequence “MIQSSLYRALNKGFDYQILACKDFKESELAKEVISYFKPNTKAILFPEFRAKKNDDLRSFFEEFLQLLGGLREFYQALENKQETIIIAPISALLHPLPKKELLESFKITLLEKYNLKDLKDKLFYYGYEILDLVEVEGEASFRGDIVDIYAPNSKAYRLSFFDTECESIKEFDPITQMSLKEDLLEIEIPPTLFSLDESSYKDLKTKVEQSPLNSFSKDLTSFGLWFLGEKAQDLLIVYKSIISPRALEEIQELASLNELDCERFKFLKVLENAQGYEDLEIHAHALEGFIALHSNHKITLLAPNKTILDNAISALDAGNMECVIAPFVLNFKTPDGIFISLNSFERKKKRQKSKLALNELNPGEWVVHDDYGVGVFSQLVQHSVLGSKRDFLEIAYLGEDKLLLPVENLHLIARYVAQSDSVPAKDRLGKGSFLKLKAKVRTKLLEIASKIIELAAERNLILGKKMDVHLAELEVFKSHAGFEYTSDQEKAIAEISKDLSSHRVMDRLLSGDVGFGKTEVAMHAIFCAFLNGFQSALVVPTTLLAHQHFETLRARFENFGVKVARLDRYASEKNKLLKAVELGQVDALIGTHAILGAKFKNLGLVVVDEEHKFGVKQKEALKELSKSVHFLSMSATPIPRTLNMALSQIKGISSLKTPPTDRKPSRTFLKEKNDELLKEIIYRELRRNGQIFYIHNHIASILKVKTKLEDLIPKLKIAILHSQINANESEEIMLEFAKGNYQVLLCTSIVESGIHLPNANTIIIDNAQNFGLADLHQLRGRVGRGKKEGFCYFLIEDQKSLNEQALKRLLALEKNSYLGSGESVAYHDLEIRGGGNLLGQDQSGHIKNIGYALYTRMLEDAIYELSGGKKRLEKSVEIQLGVSAFLNPELIASDSLRLDLYRRLSLCENTDEVGQIHEEIEDRFGKIDDLSAQFLQIITLKILANQLGIIKLSNFNQNITITYSDEKKESLKAPSKDDNDILETLLKHLRAQISLKRR”, the protein production result is listed as “failed”.
For “MSLQTCVLHRLSLPLKFPMRTAHGHIREKQAILVQLVDADGIEGWSECVALAEPTYTEECTDTAWVMLVHHLVPRFARWLRAASQDQDVDPRTVCEALRDVRGNRMSVAAIEMAVWDWYAARTGQPLVGLLGGGRDRVEVSATLGMSESLDVLIQSVDAAVEQGFRRVKLKIAPGRDRAAIKAVRLRYPDLAIAADANGSYRPEDAPVLRQLDAYDLQFIEQPLPEDDWFDLAKLQASLRTPVCLDESVRSVRELKLTARLGAARVLNVKPGRLGGFGATLRALDVAGEAGMAAWVGGMYETGVGRVHGLIAAALPLMRYATDLGPSDRYFEQDVLKEPIAFVEPGVIQVPQCAGVADWVDRDAVRRFSTATWSVDLRTLEGHHHHHH” the value was “not failed”.
